Measured values as given in IntAct's records for PubMed 8114715.

How the values were obtained:
lck_human LCK [1] = molecular target: lck_human LCK (UniProt P06239)
lck_human LCK [2] = molecular target: lck_human LCK (UniProt P06239); remark: listed apart in the source
lck_human LCK [3] = molecular target: lck_human LCK (UniProt P06239); remark: listed apart in the source

Sequence of lck_human LCK (P06239 whole entry, looked up): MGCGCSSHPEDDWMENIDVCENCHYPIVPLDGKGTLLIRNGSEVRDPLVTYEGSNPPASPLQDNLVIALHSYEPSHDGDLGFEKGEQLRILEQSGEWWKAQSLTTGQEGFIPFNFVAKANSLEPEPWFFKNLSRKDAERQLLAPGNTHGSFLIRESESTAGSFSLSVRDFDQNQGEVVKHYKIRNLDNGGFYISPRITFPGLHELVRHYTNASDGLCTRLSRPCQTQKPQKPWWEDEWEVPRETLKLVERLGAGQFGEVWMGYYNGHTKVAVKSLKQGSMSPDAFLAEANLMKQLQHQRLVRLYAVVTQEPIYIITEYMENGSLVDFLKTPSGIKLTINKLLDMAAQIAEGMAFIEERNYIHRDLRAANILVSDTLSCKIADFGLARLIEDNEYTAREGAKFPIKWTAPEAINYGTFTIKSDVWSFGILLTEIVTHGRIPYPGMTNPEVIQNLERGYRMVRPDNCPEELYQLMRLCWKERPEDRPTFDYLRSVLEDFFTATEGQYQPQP
Sequence of Tyrosine-protein phosphatase non-receptor type 6 (Homo sapiens), P29350 Y541F (P29350 whole entry Y541F): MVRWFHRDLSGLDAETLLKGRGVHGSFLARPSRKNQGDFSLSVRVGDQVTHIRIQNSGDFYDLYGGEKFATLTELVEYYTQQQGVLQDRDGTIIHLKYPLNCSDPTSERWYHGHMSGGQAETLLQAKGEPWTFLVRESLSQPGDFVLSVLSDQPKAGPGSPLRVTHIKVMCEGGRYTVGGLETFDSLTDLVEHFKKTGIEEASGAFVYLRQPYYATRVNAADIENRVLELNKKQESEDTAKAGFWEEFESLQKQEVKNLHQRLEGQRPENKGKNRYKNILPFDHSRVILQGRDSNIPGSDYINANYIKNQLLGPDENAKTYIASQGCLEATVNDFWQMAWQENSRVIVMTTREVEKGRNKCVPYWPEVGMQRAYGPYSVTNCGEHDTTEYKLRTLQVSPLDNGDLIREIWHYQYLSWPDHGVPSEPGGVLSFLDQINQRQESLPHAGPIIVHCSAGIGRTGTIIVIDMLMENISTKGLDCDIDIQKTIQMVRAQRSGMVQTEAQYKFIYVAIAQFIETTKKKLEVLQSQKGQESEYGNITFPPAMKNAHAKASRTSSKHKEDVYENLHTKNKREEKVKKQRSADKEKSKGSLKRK
Sequence of Tyrosine-protein phosphatase non-receptor type 6 (Homo sapiens), P29350 Y564F (P29350 whole entry Y564F): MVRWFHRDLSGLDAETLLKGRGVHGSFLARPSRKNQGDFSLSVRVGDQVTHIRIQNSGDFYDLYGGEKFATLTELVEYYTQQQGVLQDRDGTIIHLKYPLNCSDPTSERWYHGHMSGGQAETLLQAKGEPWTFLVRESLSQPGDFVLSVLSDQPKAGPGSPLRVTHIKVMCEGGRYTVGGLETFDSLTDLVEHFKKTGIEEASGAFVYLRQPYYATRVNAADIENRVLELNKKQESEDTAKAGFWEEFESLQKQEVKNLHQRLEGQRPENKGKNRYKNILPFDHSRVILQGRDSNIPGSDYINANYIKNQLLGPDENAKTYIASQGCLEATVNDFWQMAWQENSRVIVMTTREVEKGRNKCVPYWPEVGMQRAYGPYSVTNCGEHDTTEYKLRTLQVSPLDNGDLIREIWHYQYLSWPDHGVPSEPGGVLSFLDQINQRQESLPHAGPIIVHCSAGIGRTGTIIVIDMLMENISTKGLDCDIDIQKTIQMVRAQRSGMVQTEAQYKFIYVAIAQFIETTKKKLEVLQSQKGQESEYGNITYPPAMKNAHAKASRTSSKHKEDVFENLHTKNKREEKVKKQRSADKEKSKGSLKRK
Sequence of Tyrosine-protein phosphatase non-receptor type 6 (Homo sapiens), P29350 Y536F (P29350 whole entry Y536F): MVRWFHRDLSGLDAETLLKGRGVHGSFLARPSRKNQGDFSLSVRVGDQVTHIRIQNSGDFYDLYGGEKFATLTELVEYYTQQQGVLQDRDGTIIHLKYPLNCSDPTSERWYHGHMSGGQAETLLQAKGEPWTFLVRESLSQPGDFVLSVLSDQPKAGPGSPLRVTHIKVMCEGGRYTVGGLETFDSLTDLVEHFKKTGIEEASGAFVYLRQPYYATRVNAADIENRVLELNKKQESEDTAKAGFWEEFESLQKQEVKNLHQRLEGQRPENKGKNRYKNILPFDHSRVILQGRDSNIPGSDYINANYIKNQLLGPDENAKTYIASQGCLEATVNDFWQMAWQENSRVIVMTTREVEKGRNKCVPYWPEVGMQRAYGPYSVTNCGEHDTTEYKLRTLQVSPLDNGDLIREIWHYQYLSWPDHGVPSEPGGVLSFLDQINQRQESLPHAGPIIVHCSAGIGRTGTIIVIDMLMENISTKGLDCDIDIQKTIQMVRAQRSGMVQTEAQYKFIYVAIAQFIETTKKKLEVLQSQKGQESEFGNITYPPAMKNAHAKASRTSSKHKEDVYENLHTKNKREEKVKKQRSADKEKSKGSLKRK

## Tyrosine-protein phosphatase non-receptor type 6 (Homo sapiens), P29350 Y536F
lck_human LCK [1]
  effect of a mutation on the interaction: decreasing interaction

## Tyrosine-protein phosphatase non-receptor type 6 (Homo sapiens), P29350 Y541F
lck_human LCK [2]
  effect of a mutation on the interaction: decreasing interaction

## Tyrosine-protein phosphatase non-receptor type 6 (Homo sapiens), P29350 Y564F
lck_human LCK [3]
  effect of a mutation on the interaction: decreasing interaction
